Laboratory results as given in the RNAGym collection of RNA variant scans (doi:10.7554/elife.80360).

B1: Hairpin Ribozyme (parent)
chain: GUCCUCUUUCACGUGCGCGUGAAAGAGAGAAGUGAACCAGAGAAACACACGUUGUGGUAUAUUACCUGGUA

Variants of: B1
Test: self-cleavage, relative activity (ratio to wild type); higher = more cleavage; co-transcriptional

Variant	self-cleavage
U9C G56A	0.171
U9C G42C	0.264
U8G U52C	0.617
U9C U58A	0.559
U9C C50A	0.215
U9C A30U	0.12
U9C U62A	0.238
U9A A23G	0.559
U8G G56C	0.0783
U8G G56A	0.11
U8G U33A	0.136
U8G U33C	0.117
U9C A45G	0.0278
U9C U53G	1.13
U9C U53C	0.741
U9A G69U	0.245
U9A G69A	0.296
U9A G69C	0.274
U9C C16G	0.63
U9C C16U	1.02
U9C A47C	0.149
U9C A11C	0.592
U9A G54A	0.392
U9A U60A	0.483

Variant	self-cleavage
U8G G68C	0.183
U8G G32A	0.0907
U9C A41C	0.837
U9A G32U	0.135
U9A G32C	0.178
U8G G69C	0.323
U8G G69A	0.282
U9C C12G	0.502
U9C C12A	0.789
U8G U58A	0.665
U8G U58G	0.635
U9C A44C	0.183
U9A U58C	0.72
U9A C48U	0.134
U9A C48G	0.127
U8G G54C	0.313
U8G G54A	0.456
U9A C66G	0.0453
U9C G21U	0.695
U8G U63A	0.245
U9A A61C	0.144
U9C U60C	0.981
U9A A43U	0.105
U9C G51U	0.463

Variant	self-cleavage
U9C	0.819
U9A	0.691
U9G	0.701
U9A U20C	0.773
U9C C66U	0.513
U9C C66A	0.248
U9C U20G	0.503
U9C G57A	0.167
U9C C38A	0.225
U9C C38U	0.338
U9C G34C	1.3
U9C G34A	0.812
U9A G29A	0.0709
U9A G29U	0.144
U9A G29C	0.154
U9C A35U	0.708
U9A A28U	0.441
U9A G34C	1.08
U9C G27U	0.246
U9C G27A	0.4
U9A C16U	0.624
U9A C16A	0.626
U9A C50U	0.22
U9C A22U	0.799

Variant	self-cleavage
U9A A31G	0.313
U9C A59G	0.0975
U9C A49U	0.0445
U8G U53C	0.954
U8G U53A	0.567
U9C U63G	0.169
U8G G40U	0.132
U9C A23U	0.528
U9C G29A	0.118
U9C G15A	0.76
U9C G15C	0.977
U9G A11G	0.551
U9A A39G	0.201
U8G G27U	0.289
U9C A43U	0.298
U9A G19U	0.558
U9C C46U	0.0512
U9C U52A	0.895
U9A A71C	1.01
U9A G15C	0.727
U9A G25U	0.285
U9A A64U	0.131
U9C A39U	0.411
U9C A39G	0.283

Variant	self-cleavage
U9C A39C	0.366
U9A G68C	0.165
U9A G68U	0.159
U8G U67A	0.145
U8G U67C	0.189
U8G U67G	0.242
U9A C18G	0.617
U9A C18A	0.855
U9A U33C	0.177
U9A U33A	0.0178
U9A U33G	0.105
U9A A11G	0.473
U9A A11C	0.478
U9A A11U	0.541
U9A A36U	0.283
U9C U70C	0.492
U9A G56A	0.158
U9C A61G	0.348
U9A G57C	0.185
U9C G69C	0.136
U9C G69A	0.357
U9C G40C	0.136
U9C G40U	0.169
U9A A49G	0.395

Variant	self-cleavage
U8G U20C	0.425
U9C C18A	0.84
U9C C18U	1.02
U9A A30G	0.148
U9A A30C	0.172
U9A C12G	0.512
U9A C12A	0.377
U9G A22C	0.677
U9G A22U	0.564
U9A U52A	0.877
U9A U52C	0.6
U9A A24G	0.461
U9A G42A	0.132
U9C A24G	0.844
U9C A24C	0.657
U9A U67A	0.147
U9A U67G	0.152
U8G G51C	0.665
U9A U63A	0.212
U9A U63G	0.151
U9A U63C	0.205
U9A C38G	0.145
U9C A28U	0.571
U9C A28G	1.33

Variant	self-cleavage
U9C A31G	0.592
U9C A31U	0.153
U9C A31C	0.184
U9C A36U	0.444
U9A A45U	0.152
U9A A45C	0.154
U9C C48A	0.0859
U8G G57U	0.19
U9C C37A	0.355
U8G U60G	0.51
U9A U62C	0.249
U9A G13U	0.479
U9C G13C	0.447
U9C G13A	0.531
U9A G27U	0.326
U9A G27C	0.239
U9C G68A	0.344
U9A G40A	0.262
U9A G40U	0.119
U8G U70A	0.715
U9C U14G	0.754
U8G U9G	0.82
U8G U9C	0.595
